Measured values: patent US20250002562A1 (Scripps Research, published 2025)
Where a chain is given by its changes, count along the chain named.

B1: SKAI-DS1 (antibody, V domains shown)
VH: EVQLLESGGGLVQTGGSLRLSCAASGFTFSDYAMSWVRQAPGKGLEWVSWIYSNDGNKYYADSVKGRFTISRDNSKNTLYLQMNSLRAEDTAVYYCARFPVPSWRNTWSSYDAMDVWGQGTLVTV
VL: QSVLTQPPSASGTPGRRVTISCTGSSSNIGSNYVSWYQQLPGTAPKLLIYSDSNRPSGVPDRFSGSKSGTSASLAISGLRSEDEADYYCGTWDASLSGYVFGGGTKLTVL
notes: also called SKAI-DS1 human IgG antibody
B2: SKAI-DS66 (antibody, V domains shown)
VH: EVQLLESGGGLVQPGGSLRLSCAASGFTFSDYAMSWVRQAPGKGLEWVSAIYPGGGSTYYADSVKGRFTISRDNSKNTLYLQMNSLRAEDTAVYYCARNLFGFDYWGQGTLVTV
VL: B1 VL with R16Q, Y33A, S35Y, S51D, T91S, A94D, G98A
notes: also called SKAI-DS66 human IgG antibody
B3: SKAI-DS15 (antibody, V domains shown)
VH: EVQLLESGGGLVQPGGSLRLSCAASGFTFSDYDMSWVRQAPGKGLEWVSMIYSGSSSKYYADSVKGRFTISRDNSKNTLYLQMNSLRAEDTAVYYCARVTGTCHSGSCYYSDAMDVWGQGTLVTV
VL: B1 VL with R16Q, T23S, Y33D, S35N, S51D, T91A, A94D
notes: also called SKAI-DS15 human IgG antibody
B4: SKAI-DS3 (antibody, V domains shown)
VH: EVQLLESGGGLVQPGGSLRLSCAASGFTFSDYSMSWVRQAPGKGLEWVSAISSDSSSTYYADSVKGRFTISRDNSENTLYLQMNSLRAEDTAVYYCAKAILRCIPLGCYYADAMDVWGQGTLVTV
VL: B1 VL with R16Q, Y33D, S35T, S51A, N54K, T91A, A94Y, G98A
notes: also called SKAI-DS3 human IgG antibody
B5: SKAI-DS64 (antibody, V domains shown)
VH: B2 VH with A33S, A50G, P53H, G54S, G55D, T58K, N99F, L100D, F101P, G102V
VL: QSVLTQPPSASGTPGQRVTISCSGSSSNIGSNAVSWYQQLPGTAPKLLIYDNNHRPSGVPDRFSGSKSGTSASLAISGLRSEDEADYYCGSWDDSLNAYVFGGGTKLTVL
notes: also called SKAI-DS64 human IgG antibody

These binders were tested against SARS-CoV2 RBD antigen (Genscript) (SARS-CoV2, UniProt P0DTC2 319-541) (assay: ELISA on RBD antigen, human IgG at 1 µg/mL, O.D. 450 nm).
B1: binds.
B2: binds.
B3: no binding (tested: 1 µg/mL).
B4: no binding (tested: 1 µg/mL).
B5: binds.
